Results as given in paper PMC3903617 (PLoS ONE, 2014).
Changes are numbered by the printed parent chain. Names may count otherwise.

B1: wild-type 11K2 scFv (scFv, V domains shown)
VH: EVQLQQSGAELVKAGASVKLSCPASGLNIKDTYMHWVKQRPEQGLEWIGRIDPANGNTKFDPKFQGKATITADTSSNTAYLQLSSLTSEDTAVYYCARGVFGFFDYWGQGTTLTVSS
VL: DIQMTQSSSSFSVSLGDRVTITCKATEDIYNRLAWYQQKPGSAPRLLISGATSLETGVPSRFSGSGSGKDYTLSITSLQTEDVATYYCQQFWSAPYTFGGGTKLEIK
notes: VH of antibody 11K2; also the variable domain of the heavy chain of the 11K2 Fab in PDB 2BDN; linker of the scFv; VL of antibody 11K2; also the variable domain of the light chain of the 11K2 Fab in PDB 2BDN; also called WT; scFv 11K2
B2: 11K2 scFv mutein L-S53D (scFv, V domains shown)
VH: B1 VH
VL: B1 VL with S53D
notes: PDB 2BDN heavy chain; PDB 2BDN light chain) with the stated change
B3: 11K2 scFv mutein H-L27R (scFv, V domains shown)
VH: B1 VH with L27R
VL: B1 VL
notes: PDB 2BDN heavy chain) with the stated change; PDB 2BDN light chain)
B4: 11K2 scFv mutein H-L27K (scFv, V domains shown)
VH: B1 VH with L27K
VL: B1 VL
notes: as for B3
B5: 11K2 scFv mutein H-N28Q (scFv, V domains shown)
VH: B1 VH with N28Q
VL: B1 VL
notes: as for B3
B6: 11K2 scFv mutein L-Y30K (scFv, V domains shown)
VH: B1 VH
VL: B1 VL with Y30K
notes: as for B2
B7: 11K2 scFv mutein L-T56E (scFv, V domains shown)
VH: B1 VH
VL: B1 VL with T56E
notes: as for B2
B8: 11K2 scFv mutein L-T56D (scFv, V domains shown)
VH: B1 VH
VL: B1 VL with T56D
notes: as for B2
B9: 11K2 scFv mutein L-N31K (scFv, V domains shown)
VH: B1 VH
VL: B1 VL with N31K
notes: PDB 2BDN heavy chain; PDB 2BDN light chain) with the stated change; also called L-D31K (printed once in the results)
B10: 11K2 scFv mutein L-N31R (scFv, V domains shown)
VH: B1 VH
VL: B1 VL with N31R
notes: PDB 2BDN heavy chain; PDB 2BDN light chain) with the stated change; also called L-D31R (printed once in the results)
B11: 11K2 scFv mutein L-S53E (scFv, V domains shown)
VH: B1 VH
VL: B1 VL with S53E
notes: as for B2
B12: 11K2 scFv mutein H-D31E (scFv, V domains shown)
VH: B1 VH with D31E
VL: B1 VL
notes: as for B3

Molecular target: T1, monocyte chemo-attractant protein-1 (MCP-1) (Homo sapiens (Human)., UniProt P13500)
T1 construct: MCP-1 (monocyte chemo-attractant protein-1), chemokine; synthetic gene optimised for E. coli in pET26b; Probably the mature human chemokine, as in PDB 2BDN; also called monocyte chemotactic protein-1; antigen; source: E. coli Rosetta2 (DE3), purified (Ni-NTA, SEC)
Test: SPR; Biacore T200; MCP-1 immobilised on a CM5 chip by amine coupling (~220 RU), scFv injected at 30 µl/min; PBS with 0.005% Tween-20; 25°C; global fit, 1:1 Langmuir model; KD from koff/kon
Details: both partners purified

Row | Kd | koff | kon | Binder
1 | 0.8 nM | 0.0001 s⁻¹ | 140000 M⁻¹ s⁻¹ | B1
2 | 0.61 nM | 5.5e-05 s⁻¹ | 90000 M⁻¹ s⁻¹ | B2
3 | 2.4 nM | 0.00033 s⁻¹ | 140000 M⁻¹ s⁻¹ | B3
4 | 3.5 nM | 0.00039 s⁻¹ | 110000 M⁻¹ s⁻¹ | B4
5 | 8.5 nM | 0.0019 s⁻¹ | 220000 M⁻¹ s⁻¹ | B5
6 | 2.5 nM | 0.00031 s⁻¹ | 130000 M⁻¹ s⁻¹ | B6
7 | 0.25 nM | 2.6e-05 s⁻¹ | 100000 M⁻¹ s⁻¹ | B7
8 | 0.39 nM | 8.6e-05 s⁻¹ | 220000 M⁻¹ s⁻¹ | B8
9 | 290 nM | 0.098 s⁻¹ | 340000 M⁻¹ s⁻¹ | B9
10 | 0.17 nM | 2.2e-05 s⁻¹ | 130000 M⁻¹ s⁻¹ | B10
11 | 0.19 nM | 1.4e-05 s⁻¹ | 73000 M⁻¹ s⁻¹ | B11
12 | 5 nM | 0.00015 s⁻¹ | 30000 M⁻¹ s⁻¹ | B12

Molecular target: T1, monocyte chemo-attractant protein-1 …
Test: SPR; ionic strength series: MCP-1 immobilised, scFv injected; running buffer with 500 mM NaCl; 25°C
Details: both partners purified

Row | Kd | Binder
13 | 0.47 nM | B10

Molecular target: T1, monocyte chemo-attractant protein-1 …
Test: SPR; ionic strength series: MCP-1 immobilised, scFv injected; running buffer with 137 mM NaCl; 25°C
Details: both partners purified

Row | Kd | kon | Binder
14 | 0.36 nM | 170000 M⁻¹ s⁻¹ | B10

Molecular target: T1, monocyte chemo-attractant protein-1 …
Test: SPR; temperature dependence of KD, van't Hoff approximation; MCP-1 immobilised, scFv injected
Details: both partners purified

Row | dH | Binder
15 | -7.3 kcal/mol | B1
16 | -13.3 kcal/mol | B2
17 | -14.5 kcal/mol | B7
18 | -11.7 kcal/mol | B8
19 | -25.6 kcal/mol | B10
20 | -15.1 kcal/mol | B11
